Laboratory results taken from patent US20250059282A1.

Key:
[1] = target: Cyno PD-L2-Fc (cynomolgus); assay: ForteBio, IgG, avid
[2] = target: Cyno PD-L1-Fc (cynomolgus) (UniProt G7PSE7); assay: ForteBio, IgG, avid
[3] = target: Mouse PD-L2-Fc (mouse) (UniProt Q9WUL5); assay: ForteBio, IgG, avid
[4] = target: Mouse PD-L1-Fc (mouse) (UniProt Q9EP73); assay: ForteBio, IgG, avid
[5] = target: Human PD-L1-HIS (human) (UniProt Q9NZQ7); assay: ForteBio, IgG, monovalent
[6] = target: Human PD-L2-HIS (human) (UniProt Q9BQ51); assay: ForteBio, IgG, monovalent
Chain of Human PD-L2-HIS (human) (Q9BQ51 20-220): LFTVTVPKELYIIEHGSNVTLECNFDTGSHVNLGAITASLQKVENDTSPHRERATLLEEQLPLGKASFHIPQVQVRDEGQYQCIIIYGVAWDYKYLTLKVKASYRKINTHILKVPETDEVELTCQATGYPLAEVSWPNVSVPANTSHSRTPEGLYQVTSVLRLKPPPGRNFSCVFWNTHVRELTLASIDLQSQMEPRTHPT

Chain of Human PD-L1-HIS (human) (Q9NZQ7 19-238 limits assumed): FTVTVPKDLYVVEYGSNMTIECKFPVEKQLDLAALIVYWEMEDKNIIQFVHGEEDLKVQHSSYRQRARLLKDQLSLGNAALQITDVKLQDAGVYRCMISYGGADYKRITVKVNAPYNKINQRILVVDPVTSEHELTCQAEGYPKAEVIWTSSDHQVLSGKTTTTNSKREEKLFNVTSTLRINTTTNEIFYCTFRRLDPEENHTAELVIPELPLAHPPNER
Chain of Mouse PD-L1-Fc (mouse) (Q9EP73 19-239 limits assumed): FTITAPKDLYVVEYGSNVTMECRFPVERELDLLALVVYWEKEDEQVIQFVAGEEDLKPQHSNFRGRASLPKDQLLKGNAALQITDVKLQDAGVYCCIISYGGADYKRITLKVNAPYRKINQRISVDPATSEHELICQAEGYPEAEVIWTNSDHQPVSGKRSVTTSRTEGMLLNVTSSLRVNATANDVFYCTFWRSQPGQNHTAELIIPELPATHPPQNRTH
Chain of Cyno PD-L1-Fc (cynomolgus) (G7PSE7 entry or part of it limits assumed): as the sequence (Q9NZQ7 19-238 limits assumed) above, with A33T, A34S, S62N, R68Q, Q82R, F173L, T185A, T192I, H215L counted along it
Chain of Cyno PD-L2-Fc (cynomolgus) (chain, as listed by the source): as the sequence (Q9BQ51 20-220) above, with V19A, P62S, S67L, V139I, P166H, T178A, H179Q, M194I counted along it
Chain of Mouse PD-L2-Fc (mouse) (Q9WUL5 20-219 limits assumed): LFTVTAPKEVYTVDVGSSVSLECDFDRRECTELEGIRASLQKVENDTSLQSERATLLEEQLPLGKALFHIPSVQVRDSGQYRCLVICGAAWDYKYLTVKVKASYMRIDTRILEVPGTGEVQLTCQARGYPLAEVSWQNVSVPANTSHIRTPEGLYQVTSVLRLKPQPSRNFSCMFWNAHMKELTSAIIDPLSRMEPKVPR

Kd [1]: 0.621 nM
Kd [2]: 0.442 nM
Kd [3]: 0.694 nM
Kd [4]: 2.97 nM
Kd [5]: 15.5 nM
Kd [6]: 2.2 nM
B1: BiPDL3-54 (antibody, part only; not given: light chain variable domain, V domains shown, part only)
VH: QVQLQQWGAGLLKPSETLSLTCAVYGGSLSGYPWSWIRQPPGKGLEWIGETDVSGWTDYNPSLKSRVTISVDTSKNQFSLKLSSVTAADTAVYYCARDGRRMGTPSFDIWGQGTMVTVSS
